Experimental findings from the MegaScale stability set (Tsuboyama et al. 2023) are described below.

The labels stand for the following.
B1: EHEE_rd4_0726 (parent)
chain: DIEITTNGEEDAKRVIKELQKRNLEYHIEVHGNQWVIKVR

Variants of B1 are the subject of the data set. Nature of the data set: folding stability dG (cDNA display proteolysis); higher = more stable. The conditions noted are these: PBS, room temperature.
Turning to DIEITTNGEEDAKRVIKELQKRNLEYHIEVHGFQWVIKVR [N33F], the “folding stability dG” value was found to be 2.06 kcal/mol. Consider DIEITTNGEEDAKRVIKELQKRNLEYHIEVHGVQWVIKVR [N33V], for which the “folding stability dG” value was determined as 1.76 kcal/mol.

On to DIEITTNGEEDAKRVIKELQKRNLEYHIEVHGWQWVIKVR [N33W], for which the “folding stability dG” value was 1.83 kcal/mol. Take DIEITTNGEEDAKRVIKELQKRNLEYHIEVHGTQWVIKVR [N33T]: the “folding stability dG” value is 2.24 kcal/mol.

Regarding DIEITTNGEEDAKRVIKELQKRNLEYHIEVHGSQWVIKVR [N33S], the “folding stability dG” value stood at 2.22 kcal/mol.

For the variant DIEITTNGEEDAKRVIKELQKRNLEYHIEVHGDQWVIKVR [N33D], the “folding stability dG” value came to 2.5 kcal/mol. The figure for DIEITTNGEEDAKRVIKELQKRNLEYHIEVHGHQWVIKVR [N33H] is 2.03 kcal/mol; for DIEITTNGEEDAKRVIKELQKRNLEYHIEVHGAQWVIKVR [N33A] it is 2 kcal/mol; for DIEITTNGEEDAKRVIKELQKRNLEYHIEVHGEQWVIKVR [N33E] it is 2.16 kcal/mol. As for DIEITTNGEEDAKRVIKELQKRNLEYHIEVHGMQWVIKVR [N33M], the “folding stability dG” value amounted to 1.97 kcal/mol.

Take DIEITTNGEEDAKRVIKELQKRNLEYHIEVHGQQWVIKVR [N33Q]: the “folding stability dG” value was 2.09 kcal/mol.

For the variant DIEITTNGEEDAKRVIKELQKRNLEYHIEVHGLQWVIKVR [N33L], the “folding stability dG” value was determined as 1.94 kcal/mol. For the variant DIEITTNGEEDAKRVIKELQKRNLEYHIEVHGRQWVIKVR [N33R], the “folding stability dG” value is 1.68 kcal/mol. To DIEITTNGEEDAKRVIKELQKRNLEYHIEVHGIQWVIKVR [N33I] belongs 1.66 kcal/mol. On to DIEITTNGEEDAKRVIKELQKRNLEYHIEVHGKQWVIKVR [N33K], for which the “folding stability dG” value was 1.92 kcal/mol.

Take DIEITTNGEEDAKRVIKELQKRNLEYHIEVHGGQWVIKVR [N33G]: the “folding stability dG” value turned out to be 2.34 kcal/mol. The figure for DIEITTNGEEDAKRVIKELQKRNLEYHIEVHGNQNVIKVR [W35N] is -0.421 kcal/mol; for DIEITTNGEEDAKRVIKELQKRNLEYHIEVHGNQYVIKVR [W35Y] it is 1.85 kcal/mol. To DIEITTNGEEDAKRVIKELQKRNLEYHIEVHGNQVVIKVR [W35V] belongs 1.67 kcal/mol; to DIEITTNGEEDAKRVIKELQKRNLEYHIEVHGNQHVIKVR [W35H], 0.787 kcal/mol; to DIEITTNGEEDAKRVIKELQKRNLEYHIEVHGNQFVIKVR [W35F], 1.79 kcal/mol.

With DIEITTNGEEDAKRVIKELQKRNLEYHIEVHGNQIVIKVR [W35I], the “folding stability dG” value worked out at 2.06 kcal/mol. To DIEITTNGEEDAKRVIKELQKRNLEYHIEVHGNQSVIKVR [W35S] belongs 0.359 kcal/mol. To DIEITTNGEEDAKRVIKELQKRNLEYHIEVHGNQCVIKVR [W35C] belongs 1.35 kcal/mol.

Take DIEITTNGEEDAKRVIKELQKRNLEYHIEVHGNQQVIKVR [W35Q]: the “folding stability dG” value is 0.512 kcal/mol. The figure for DIEITTNGEEDAKRVIKELQKRNLEYHIEVHGNQKVIKVR [W35K] is 0.49 kcal/mol. The figure for DIEITTNGEEDAKRVIKELQKRNLEYHIEVHGNQAVIKVR [W35A] is 0.294 kcal/mol; for DIEITTNGEEDAKRVIKELQKRNLEYHIEVHGNQGVIKVR [W35G] it is -0.933 kcal/mol; for DIEITTNGEEDAKRVIKELQKRNLEYHIEVHGNQLVIKVR [W35L] it is 1.53 kcal/mol. For DIEITTNGEEDAKRVIKELQKRNLEYHIEVHGNQMVIKVR [W35M], the “folding stability dG” value was 1.44 kcal/mol.

Take DIEITTNGEEDAKRVIKELQKRNLEYHIEVHGNQRVIKVR [W35R]: the “folding stability dG” value is 0.717 kcal/mol. To DIEITTNGEEDAKRVIKELQKRNLEYHIEVHGNQTVIKVR [W35T] belongs 1.24 kcal/mol; to DIEITTNGEEDAKRVIKELQKRNLEYHIEVHGNQWEIKVR [V36E], 0.046 kcal/mol; to DIEITTNGEEDAKRVIKELQKRNLEYHIEVHGNQWLIKVR [V36L], 1.93 kcal/mol. To DIEITTNGEEDAKRVIKELQKRNLEYHIEVHGNQWQIKVR [V36Q] belongs 0.978 kcal/mol; to DIEITTNGEEDAKRVIKELQKRNLEYHIEVHGNQWHIKVR [V36H], 1.47 kcal/mol; to DIEITTNGEEDAKRVIKELQKRNLEYHIEVHGNQWAIKVR [V36A], 0.418 kcal/mol.

Regarding DIEITTNGEEDAKRVIKELQKRNLEYHIEVHGNQWFIKVR [V36F], the “folding stability dG” value came to 1.85 kcal/mol. To DIEITTNGEEDAKRVIKELQKRNLEYHIEVHGNQWCIKVR [V36C] belongs 1.43 kcal/mol; to DIEITTNGEEDAKRVIKELQKRNLEYHIEVHGNQWKIKVR [V36K], 1.67 kcal/mol; to DIEITTNGEEDAKRVIKELQKRNLEYHIEVHGNQWMIKVR [V36M], 1.37 kcal/mol. To DIEITTNGEEDAKRVIKELQKRNLEYHIEVHGNQWIIKVR [V36I] belongs 2.7 kcal/mol; to DIEITTNGEEDAKRVIKELQKRNLEYHIEVHGNQWNIKVR [V36N], 0.793 kcal/mol; to DIEITTNGEEDAKRVIKELQKRNLEYHIEVHGNQWRIKVR [V36R], 1.7 kcal/mol. The figure for DIEITTNGEEDAKRVIKELQKRNLEYHIEVVGNQWVIKVR [H31V] is 2.61 kcal/mol.

Take DIEITTNGEEDAKRVIKELQKRNLEYHIEVLGNQWVIKVR [H31L]: the “folding stability dG” value amounted to 2.27 kcal/mol. As to DIEITTNGEEDAKRVIKELQKRNLEYHIEVTGNQWVIKVR [H31T], the “folding stability dG” value was determined as 2.17 kcal/mol.

On to DIEITTNGEEDAKRVIKELQKRNLEYHIEVFGNQWVIKVR [H31F], for which the “folding stability dG” value was determined as 2.36 kcal/mol. The figure for DIEITTNGEEDAKRVIKELQKRNLEYHIEVIGNQWVIKVR [H31I] is 2.72 kcal/mol; for DIEITTNGEEDAKRVIKELQKRNLEYHIEVAGNQWVIKVR [H31A] it is 1.88 kcal/mol. The figure for DIEITTNGEEDAKRVIKELQKRNLEYHIEVSGNQWVIKVR [H31S] is 2.12 kcal/mol; for DIEITTNGEEDAKRVIKELQKRNLEYHIEVWGNQWVIKVR [H31W] it is 2.08 kcal/mol; for DIEITTNGEEDAKRVIKELQKRNLEYHIEVMGNQWVIKVR [H31M] it is 2.32 kcal/mol.

With DIEITTNGEEDAKRVIKELQKRNLEYHIEVGGNQWVIKVR [H31G], the “folding stability dG” value was determined as 0.973 kcal/mol.

As for DIEITTNGEEDAKRVIKELQKRNLEYHIEVEGNQWVIKVR [H31E], the “folding stability dG” value came to 1.68 kcal/mol.

Turning to DIEITTNGEEDAKRVIKELQKRNLEYHIEVYGNQWVIKVR [H31Y], the “folding stability dG” value is 2.26 kcal/mol. Take DIEITTNGEEDAKRVIKELQKRNLEYHIEVNGNQWVIKVR [H31N]: the “folding stability dG” value was determined as 2.42 kcal/mol. The figure for DIEITTNGEEDAKRVIKELQKRNLEYHIEVDGNQWVIKVR [H31D] is 1.79 kcal/mol; for DIEITTNGEEDAKRVIKELQKRNLEYHIEVCGNQWVIKVR [H31C] it is 2.31 kcal/mol.

Take DIEITTNGEEDAKRVIKELQKRNLEYHIEVPGNQWVIKVR [H31P]: the “folding stability dG” value is -0.6 kcal/mol. Consider DIEITTNGEEDAKRVIKELQKRNLEYHIEVQGNQWVIKVR [H31Q], for which the “folding stability dG” value was 2.29 kcal/mol. DIEITTNGEEDAKRVIKELQKRNLEYHIEVRGNQWVIKVR [H31R]: the “folding stability dG” value came out at 2.97 kcal/mol. The figure for DIEITTNGEEDAKRVIKELQKRNLEYHIEVKGNQWVIKVR [H31K] is 2.5 kcal/mol.
